Target: the molecule itself
Assay: SEC

B1: Nwk^1-428∆tips (domain or fragment, Drosophila, UniProt X2JAU8 1-428, looked up)
chain: MQPPPRKGNYVKFLKNLHTEQVAKLQLKNQHECDLLEDIRQFTIKRSAVEKSYSESLLKISSQYLNKKIPNIPDIKMEGMEERWNMWSVWRTVLEENEKLARARLAAIEVFQQQIADEAKVLRDYKLAIAKRSLAGIVNVQKELHLSVGDVDKTKKSYFDEEHCAHDVRDKARDIEEKLKNLITSLQKNSARVTSRKELLEEKSSGARNDYVLSLAAANAHQNRYFTVDLQTTMTTMENYVFERVAEYLMLMGRTELLTCSATQNSFGKIRDQAQQLTREYNLQCCYLFYPVLKQHIQYDFEACDNDPVRKVTAEHESAAETLTKEAKNLAGRVVKENASIRENAKKLALCQSLRDSGQRTDPNDPNGPDLDTKIEEFRDQIRRSETEKTKAEACLQCLRDGGINVDEWVQEAENMGVQEL
stoichiometry N: 2
